Source: publication PMC12241546, “PRELP functions via multiple interactions with intrinsically weak affinity relying on ECM anchoring and remodeling” (Scientific Reports, 2025)

B1: Recombinant extracellular domain of human p75NTR (low-affinity nerve growth factor receptor) (receptor, UniProt P08138 29-189, looked up)
chain: KEACPTGLYTHSGECCKACNLGEGVAQPCGANQTVCEPCLDSVTFSDVVSATEPCKPCTECVGLQSMSAPCVEADDAVCRCAYGYYQDETTGRCEACRVCEAGSGLVFSCQDKQNTVCEECPDGTYSDEANHVDPCLPCTVCEDTERQLRECTRWADAECE
notes: also called p75NTR ectodomain; source: Sf9 cells, purified from the culture supernatant (Ni-NTA, SEC)
B2: Recombinant human full-length PRELP (proline/arginine-rich end leucine-rich repeat protein) (natural protein, UniProt P51888 21-382, looked up)
chain: QPTRRPRPGTGPGRRPRPRPRPTPSFPQPDEPAEPTDLPPPLPPGPPSIFPDCPRECYCPPDFPSALYCDSRNLRKVPVIPPRIHYLYLQNNFITELPVESFQNATGLRWINLDNNRIRKIDQRVLEKLPGLVFLYMEKNQLEEVPSALPRNLEQLRLSQNHISRIPPGVFSKLENLLLLDLQHNRLSDGVFKPDTFHGLKNLMQLNLAHNILRKMPPRVPTAIHQLYLDSNKIETIPNGYFKSFPNLAFIRLNYNKLTDRGLPKNSFNISNLLVLHLSHNRISSVPAINNRLEHLYLNNNSIEKINGTQICPNDLVAFHDFSSDLENVPHLRYLRLDGNYLKPPIPLDLMMCFRLLQSVVI
notes: human PRELP, amino acid residues 21-382 (Uniprot numbering); source: Mimic Sf9 cells, purified from the supernatant (DDDDK-tagged Protein Purification Gel, Benzonase, SEC); not shown: FLAG, C-terminal, kept

How the values were obtained:
Conditions in all cases: both partners purified
[1] = target: B2; experiment: SPR; Biacore T200; PRELP proteins immobilised on CM5 by amine coupling (about 4000 RU; chPRELP about 600 RU for IGFI-R, 2000 RU for p75NTR); IGFI-R or p75NTR injected at 30 µL/min; 10 mM HEPES pH 7.5, 150 mM NaCl, 0.05% Tween-20, 15 °C; equilibrium curve fitting
[2] = target: T1, Recombinant extracellular domain of human IGFI-R (insulin-like growth factor I receptor) (human, UniProt P08069 31-935); experiment: as above
T1 construct: extracellular domain of human IGFI-R, amino acid residues 31-935 (Uniprot); also called IGFI-R ectodomain; source: ExpiCHO cells, purified from the culture supernatant (Ni-NTA, SEC)

[3] = target: B1; experiment: as above
[4] = target: T1, Recombinant extracellular domain of …; experiment: as above; remark: listed apart in the source
[5] = target: T2, Recombinant mature TGFβ1 dimer (transforming growth factor β1) (human, UniProt P01137 279-390); experiment: SPR; Biacore T200; PRELP proteins immobilised on CM5 by amine coupling (about 400 RU; chPRELP about 600 RU); TGFβ1 or TGFβRII injected at 30 µL/min; 10 mM HEPES pH 7.5, 150 mM NaCl, 50 mM arginine-HCl, 0.05% Tween-20, 15 °C; global fitting
T2 construct: mature TGFβ1 cut from the human TGFβ1 pro-protein (expressed as amino acid residues 30-390, Uniprot, with C33S in the pro-region); source: ExpiCHO cells, transfected
T2 sequence (P01137 279-390): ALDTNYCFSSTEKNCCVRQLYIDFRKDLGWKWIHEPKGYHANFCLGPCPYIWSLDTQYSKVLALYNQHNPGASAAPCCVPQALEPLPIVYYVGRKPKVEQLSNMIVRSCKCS

T1 sequence (P08069 31-935): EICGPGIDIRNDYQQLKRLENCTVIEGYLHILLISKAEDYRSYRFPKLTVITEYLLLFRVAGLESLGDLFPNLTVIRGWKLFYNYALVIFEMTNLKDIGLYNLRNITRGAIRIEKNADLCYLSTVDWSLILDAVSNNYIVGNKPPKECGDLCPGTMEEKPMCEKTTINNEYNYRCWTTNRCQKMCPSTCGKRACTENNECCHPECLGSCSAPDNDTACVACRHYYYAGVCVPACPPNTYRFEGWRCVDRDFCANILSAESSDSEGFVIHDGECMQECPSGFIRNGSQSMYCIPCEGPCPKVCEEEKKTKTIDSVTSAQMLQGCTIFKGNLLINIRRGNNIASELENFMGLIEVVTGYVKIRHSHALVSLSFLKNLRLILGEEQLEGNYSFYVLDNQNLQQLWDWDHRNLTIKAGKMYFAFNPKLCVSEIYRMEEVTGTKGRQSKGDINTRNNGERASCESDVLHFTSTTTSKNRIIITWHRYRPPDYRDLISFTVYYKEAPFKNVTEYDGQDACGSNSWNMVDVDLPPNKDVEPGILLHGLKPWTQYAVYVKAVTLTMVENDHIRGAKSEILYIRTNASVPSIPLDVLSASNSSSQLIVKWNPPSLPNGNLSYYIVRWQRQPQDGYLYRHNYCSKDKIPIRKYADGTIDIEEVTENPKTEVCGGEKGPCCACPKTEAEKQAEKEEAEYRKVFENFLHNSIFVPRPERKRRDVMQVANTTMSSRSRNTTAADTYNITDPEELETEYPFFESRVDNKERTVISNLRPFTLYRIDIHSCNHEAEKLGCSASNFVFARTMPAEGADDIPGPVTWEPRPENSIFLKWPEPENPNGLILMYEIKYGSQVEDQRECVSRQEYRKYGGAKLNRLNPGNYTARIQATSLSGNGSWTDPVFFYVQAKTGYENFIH

Row | Binder | Kd [1] [µM] | Kd [2] [µM] | Kd [3] [µM] | Kd [4] [µM] | Kd [5] [µM] | koff [5] [s⁻¹] | kon [5] [M⁻¹ s⁻¹]
1 | B1 | 12.7 |  |  |  |  |  | 
2 | B2 |  | 7.09 |  |  |  |  | 
3 | N-terminal-truncated PRELP ΔNT50 (domain or fragment, secreted from insect cells (Mimic Sf9), possible N-glycans; C-terminal FLAG tag omitted. The start at 71 is 50 residues removed from the printed mature construct 21-382, just before the Cys-rich …) PDCPRECYCPPDFPSALYCDSRNLRKVPVIPPRIHYLYLQNNFITELPVESFQNATGLRWINLDNNRIRKIDQRVLEKLPGLVFLYMEKNQLEEVPSALPRNLEQLRLSQNHISRIPPGVFSKLENLLLLDLQHNRLSDGVFKPDTFHGLKNLMQLNLAHNILRKMPPRVPTAIHQLYLDSNKIETIPNGYFKSFPNLAFIRLNYNKLTDRGLPKNSFNISNLLVLHLSHNRISSVPAINNRLEHLYLNNNSIEKINGTQICPNDLVAFHDFSSDLENVPHLRYLRLDGNYLKPPIPLDLMMCFRLLQSVVI |  |  | 11.7 | 6.97 | 1.55 | 0.169 | 75100
4 | N-terminal-truncated PRELP ΔNT24 (domain or fragment, secreted from insect cells (Mimic Sf9), possible N-glycans; C-terminal FLAG tag omitted. The start at 45 is 24 residues removed from the printed mature construct 21-382, which matches removal of the …) SFPQPDEPAEPTDLPPPLPPGPPSIFPDCPRECYCPPDFPSALYCDSRNLRKVPVIPPRIHYLYLQNNFITELPVESFQNATGLRWINLDNNRIRKIDQRVLEKLPGLVFLYMEKNQLEEVPSALPRNLEQLRLSQNHISRIPPGVFSKLENLLLLDLQHNRLSDGVFKPDTFHGLKNLMQLNLAHNILRKMPPRVPTAIHQLYLDSNKIETIPNGYFKSFPNLAFIRLNYNKLTDRGLPKNSFNISNLLVLHLSHNRISSVPAINNRLEHLYLNNNSIEKINGTQICPNDLVAFHDFSSDLENVPHLRYLRLDGNYLKPPIPLDLMMCFRLLQSVVI |  |  | 11.3 | 3.9 | 0.512 | 0.142 | 277000
5 | Recombinant chimeric PRELP (human PRELP 1-268 joined to Listeria monocytogenes internalin B 189-248) (other, signal peptide in the construct; human PRELP, amino acid residues 1-268 (Uniprot), N-terminal half portion with LRR1-7; also called chPRELP; source: Expi293 cells, transfected, purified from the culture supernatant (FLAG-tag purification, SEC)) QPTRRPRPGTGPGRRPRPRPRPTPSFPQPDEPAEPTDLPPPLPPGPPSIFPDCPRECYCPPDFPSALYCDSRNLRKVPVIPPRIHYLYLQNNFITELPVESFQNATGLRWINLDNNRIRKIDQRVLEKLPGLVFLYMEKNQLEEVPSALPRNLEQLRLSQNHISRIPPGVFSKLENLLLLDLQHNRLSDGVFKPDTFHGLKNLMQLNLAHNILRKMPPRVPTAIHQLYLDSNKIETIPNGYFKSFPNLDTLSLEDNQISDIVPLAGLTKLQNLYLSKNHISDLRALAGLKNLDVLELFSQECLNKPIN |  |  | 14.5 | 15.4 | 1.21 | 0.362 | 241000
